From US20240085404A1

Target: human FcRn (FCGRT heavy chain and B2M light chain) expressed on MDCK-hFcRn cells (human) (UniProt P55899)
Assay: cell-based or functional assay

recycling output | Substance
0.6 ng/mL | anti-gD HAHQ (antibody)
1.9 ng/mL | anti-gD YTE (antibody)
